# Laboratory results as given in patent publication US7351690B2, “Knockout identification of target-specific sites in peptides” (priority 2000, dated 2008).
# Square brackets hold non-standard residues; d marks the D form. Ends that are not written are not given here. pGlu = O=C1CC[C@@H](C(=O)O)N1; Nle = CCCC[C@H](N)C(=O)O
# Legend:
# hMC5-R = target: T1, hMC5-R (Homo sapiens, UniProt P33032); experiment: competitive inhibition binding assay, 125I-NDP-alpha-MSH, hMC5-R membranes; conditions: 1 μM test peptide; 0.4 nM 125I-NDP-alpha-MSH; hMC5-R membranes
# T1 construct: expressed in transfected cells
# Procedure: (§1) The competitive inhibition binding assay was conducted using membranes prepared from hMC3-R, hMC4-R, hMC5-R, and B-16 mouse melanoma cells (containing MC1-R) using 0.4 nM ^125I-NDP-alpha-MSH (New England Nuclear, Boston, Mass., USA) in 50 mM HEPES buffer containing 1 mM MgCl2, 2 mM CaCl2, and 5 mM KCl, at pH 7.2. The assay tube also contained a chosen concentration of the test peptide of this invention complexed to a rhenium metal ion, typically at a 1 μM concentration, for determining its efficacy in inhibiting the binding of ^125I-NDP-alpha-MSH to its receptor. Non-specific binding was measured by complete inhibition of binding of ^125I-NDP-alpha-MSH in the assay with the presence of 1 μM alpha-MSH. Incubation was for 90 minutes at room temperature, after which the assay mixture was filtered and the membranes washed three times with ice cold buffer. The filter was dried and counted in a gamma counter for remaining radioactivity bound to the membranes. 100% specific binding was defined as the difference in radioactivity (cpm) bound to cell membranes in the absence and presence of 1 μM alpha-MSH. The cpm obtained in presence of test compounds were normalized with respect to 100% specific binding to determine the percent inhibition of ^125I-NDP-alpha MSH binding. Each assay was conducted in triplicate and the actual mean valves are described.
# hMC3-R = target: T2, hMC3-R (Homo sapiens, UniProt P41968); experiment: competitive inhibition binding assay, 125I-NDP-alpha-MSH, hMC3-R membranes; conditions: 1 μM test peptide; 0.4 nM 125I-NDP-alpha-MSH; hMC3-R membranes
# T2 construct: expressed in transfected cells
# Procedure: as §1
# MC1-R = target: T3, MC1-R (Mus musculus, UniProt Q01727); experiment: competitive inhibition binding assay, 125I-NDP-alpha-MSH, B-16 mouse melanoma cell membranes; conditions: 1 μM test peptide; 0.4 nM 125I-NDP-alpha-MSH; B-16 mouse melanoma cell membranes
# T3 construct: membranes prepared from hMC3-R, hMC4-R, hMC5-R, and B-16 mouse melanoma cells (containing MC1-R); endogenous in cells; host or cells: B-16 mouse melanoma cells (membranes)
# Procedure: as §1
# hMC4-R = target: T4, hMC4-R (Homo sapiens, UniProt P32245); experiment: competitive inhibition binding assay, 125I-NDP-alpha-MSH, hMC4-R membranes; conditions: 1 μM test peptide; 0.4 nM 125I-NDP-alpha-MSH; hMC4-R membranes
# T4 construct: expressed in transfected cells
# Procedure: as §1
# bombesin receptor = experiment: competitive binding assay, 125I-Bombesin, rat brain membranes; conditions: inhibition of 0.01 nM 125I-Bombesin binding; rat brain membranes; test concentration not given
# Procedure: Rat brain membranes were utilized as the source of bombesin receptor. The competitive binding assay was performed using a procedure as described by Moody T W, Perk C B, Rivier J, Brown, M R. (Proc Natl Acad Sci USA. 75:5372-5376, […]) and adapted to a 96 well format. An aliquot of membranes taken in assay buffer (50 mM Tris and HCl, pH 7.4 containing 1 mg/mL BSA and 2 μg/mL bacitracin) was incubated with 0.01 nM of ^125I-Bombesin with or without varying concentrations of the test compound for 60 min at 4° C. The incubation was terminated by rapid filtration of the assay mixture, followed by washing the filters with ice-cold buffer. The filters were dried and counted in a gamma counter for retained radioactivity. Non-specific binding was measured by including 1 μM Bombesin in the assay tube. The assay was performed in triplicate and results calculated to determine percentage inhibition of the ^125I-Bombesin binding to its receptors by a test compound. The parent polypeptide is shown in Table 6, with metallopeptides having Cys inserted as shown.
# T2 sequence (P41968 whole entry): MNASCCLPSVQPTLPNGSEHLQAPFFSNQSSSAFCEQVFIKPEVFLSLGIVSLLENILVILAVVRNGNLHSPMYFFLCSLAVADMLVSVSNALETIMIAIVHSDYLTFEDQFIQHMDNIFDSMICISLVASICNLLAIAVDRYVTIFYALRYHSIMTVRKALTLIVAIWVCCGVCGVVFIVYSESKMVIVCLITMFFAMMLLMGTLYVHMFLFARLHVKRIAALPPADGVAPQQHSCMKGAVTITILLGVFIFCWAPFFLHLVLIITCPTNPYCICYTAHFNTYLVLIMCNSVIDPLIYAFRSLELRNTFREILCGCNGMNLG
# T1 sequence (P33032 whole entry): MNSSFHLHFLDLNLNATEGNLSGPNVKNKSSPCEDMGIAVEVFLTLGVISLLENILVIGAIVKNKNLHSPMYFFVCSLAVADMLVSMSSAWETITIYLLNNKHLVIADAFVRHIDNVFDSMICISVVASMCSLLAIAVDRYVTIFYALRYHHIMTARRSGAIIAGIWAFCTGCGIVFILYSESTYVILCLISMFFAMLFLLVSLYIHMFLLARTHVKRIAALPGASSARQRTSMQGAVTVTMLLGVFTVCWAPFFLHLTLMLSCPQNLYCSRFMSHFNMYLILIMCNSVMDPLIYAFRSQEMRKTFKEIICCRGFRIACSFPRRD
# T3 sequence (Q01727 whole entry): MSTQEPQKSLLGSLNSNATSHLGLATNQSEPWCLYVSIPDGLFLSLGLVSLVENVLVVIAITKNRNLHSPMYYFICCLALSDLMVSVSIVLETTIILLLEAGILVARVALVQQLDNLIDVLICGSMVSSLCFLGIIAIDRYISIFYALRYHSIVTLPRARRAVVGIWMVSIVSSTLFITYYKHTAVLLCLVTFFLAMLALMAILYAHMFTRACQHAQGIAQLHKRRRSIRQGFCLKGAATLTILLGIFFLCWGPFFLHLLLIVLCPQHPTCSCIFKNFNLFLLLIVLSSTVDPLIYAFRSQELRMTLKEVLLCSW
# T4 sequence (P32245 whole entry): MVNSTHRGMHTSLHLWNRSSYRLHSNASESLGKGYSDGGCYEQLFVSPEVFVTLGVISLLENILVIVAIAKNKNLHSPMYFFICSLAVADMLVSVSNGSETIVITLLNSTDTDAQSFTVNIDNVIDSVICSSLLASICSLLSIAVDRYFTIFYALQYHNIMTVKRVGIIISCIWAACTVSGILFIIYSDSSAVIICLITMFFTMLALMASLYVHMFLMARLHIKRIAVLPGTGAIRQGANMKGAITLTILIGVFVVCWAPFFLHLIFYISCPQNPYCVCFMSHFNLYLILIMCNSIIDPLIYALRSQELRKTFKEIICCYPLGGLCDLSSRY
substance,measurement,setting,value
Ac-Ser-Tyr-Cys-Ser-Nle-Glu-His-Phe-Arg-Trp-Gly-Lys-Pro-Val-NH2 (chain 1 Ac-SYCS[Nle]; chain 2 EHFRWGKPV-NH2; not fully specified (bridges); printed as Ac-Ser-Tyr-Cys-Ser-Nle-Glu-His-Phe-Arg-Trp-Gly-Lys-Pro-Val-NH2; also: oxorhenium(V) N3S1 chelate (Re(V)=O)) [1-12],% Inhibition at 1 μM at Melanocortin Receptor 5,hMC5-R,19%
same,% Inhibition at 1 μM at Melanocortin Receptor 3,hMC3-R,15%
same,% Inhibition at 1 μM at Melanocortin Receptor 1,MC1-R,96%
same,% Inhibition at 1 μM at Melanocortin Receptor 4,hMC4-R,26%
Ac-Ser-Tyr-D-Cys-Ser-Nle-Glu-His-Phe-Arg-Trp-Gly-Lys-Pro-Val-NH2 (Ac-SY[dC]S[Nle]EHFRWGKPV-NH2; not fully specified (bridges); printed as Ac-Ser-Tyr-D-Cys-Ser-Nle-Glu-His-Phe-Arg-Trp-Gly-Lys-Pro-Val-NH2; numbers in words are those of the source; also: oxorhenium(V) N3S1 chelate (Re(V)=O)) [2-12],% Inhibition at 1 μM at Melanocortin Receptor 5,hMC5-R,17%
same,% Inhibition at 1 μM at Melanocortin Receptor 3,hMC3-R,21%
same,% Inhibition at 1 μM at Melanocortin Receptor 1,MC1-R,97%
same,% Inhibition at 1 μM at Melanocortin Receptor 4,hMC4-R,47%
Ac-Ser-Tyr-Ser-Cys-Nle-Glu-His-Phe-Arg-Trp-Gly-Lys-Pro-Val-NH2 (chain 1 Ac-SYSC[Nle]; chain 2 EHFRWGKPV-NH2; not fully specified (bridges); printed as Ac-Ser-Tyr-Ser-Cys-Nle-Glu-His-Phe-Arg-Trp-Gly-Lys-Pro-Val-NH2; also: oxorhenium(V) N3S1 chelate (Re(V)=O)) [1-11],% Inhibition at 1 μM at Melanocortin Receptor 5,hMC5-R,6%
same,% Inhibition at 1 μM at Melanocortin Receptor 3,hMC3-R,18%
same,% Inhibition at 1 μM at Melanocortin Receptor 1,MC1-R,95%
same,% Inhibition at 1 μM at Melanocortin Receptor 4,hMC4-R,21%
Ac-Ser-Tyr-Ser-D-Cys-Nle-Glu-His-Phe-Arg-Trp-Gly-Lys-Pro-Val-NH2 (Ac-SYS[dC][Nle]EHFRWGKPV-NH2; not fully specified (bridges); printed as Ac-Ser-Tyr-Ser-D-Cys-Nle-Glu-His-Phe-Arg-Trp-Gly-Lys-Pro-Val-NH2; numbers in words are those of the source; also: oxorhenium(V) N3S1 chelate (Re(V)=O)) [2-11],% Inhibition at 1 μM at Melanocortin Receptor 5,hMC5-R,0%
same,% Inhibition at 1 μM at Melanocortin Receptor 3,hMC3-R,5%
same,% Inhibition at 1 μM at Melanocortin Receptor 1,MC1-R,95%
same,% Inhibition at 1 μM at Melanocortin Receptor 4,hMC4-R,37%
Ac-Ser-Tyr-Ser-Nle-Cys-Glu-His-Phe-Arg-Trp-Gly-Lys-Pro-Val-NH2 (Ac-SYS[Nle]CEHFRWGKPV-NH2; not fully specified (bridges); printed as Ac-Ser-Tyr-Ser-Nle-Cys-Glu-His-Phe-Arg-Trp-Gly-Lys-Pro-Val-NH2; numbers in words are those of the source; also: oxorhenium(V) N3S1 chelate (Re(V)=O)) [1-10],% Inhibition at 1 μM at Melanocortin Receptor 5,hMC5-R,5%
same,% Inhibition at 1 μM at Melanocortin Receptor 3,hMC3-R,0%
same,% Inhibition at 1 μM at Melanocortin Receptor 1,MC1-R,72%
same,% Inhibition at 1 μM at Melanocortin Receptor 4,hMC4-R,7%
Ac-Ser-Tyr-Ser-Nle-D-Cys-Glu-His-Phe-Arg-Trp-Gly-Lys-Pro-Val-NH2 (Ac-SYS[Nle][dC]EHFRWGKPV-NH2; numbers in words are those of the source; also: oxorhenium(V) N3S1 chelate via Cys (Re(V)=O)) [2-10],% Inhibition at 1 μM at Melanocortin Receptor 5,hMC5-R,0%
same,% Inhibition at 1 μM at Melanocortin Receptor 3,hMC3-R,0%
same,% Inhibition at 1 μM at Melanocortin Receptor 1,MC1-R,65%
same,% Inhibition at 1 μM at Melanocortin Receptor 4,hMC4-R,18%
Ac-Ser-Tyr-Ser-Nle-Glu-Cys-His-Phe-Arg-Trp-Gly-Lys-Pro-Val-NH2 (Ac-SYS[Nle]ECHFRWGKPV-NH2; not fully specified (bridges); printed as Ac-Ser-Tyr-Ser-Nle-Glu-Cys-His-Phe-Arg-Trp-Gly-Lys-Pro-Val-NH2; numbers in words are those of the source; also: oxorhenium(V) N3S1 chelate (Re(V)=O)) [1-9],% Inhibition at 1 μM at Melanocortin Receptor 5,hMC5-R,6%
same,% Inhibition at 1 μM at Melanocortin Receptor 3,hMC3-R,0%
same,% Inhibition at 1 μM at Melanocortin Receptor 1,MC1-R,74%
same,% Inhibition at 1 μM at Melanocortin Receptor 4,hMC4-R,3%
Pyr-Gln-Arg-Leu-Gly-Asn-Gln-Trp-Ala-Val-Gly-His-Leu-Cys-NH2 (QRLGNQWAVGHLC; N-term pyroglutamate; C-terminal amide; rhenium complex; printed: Gln-Arg-Leu-Gly-Asn-Gln-Trp-Ala-Val-Gly-His-Leu-Cys-) [7-1],% Inhibition,bombesin receptor,73%
Pyr-Gln-Arg-Leu-Gly-Asn-Gln-Trp-Ala-Val-Gly-His-Leu-Cys-Nle-NH2 (QRLGNQWAVGHLC; N-term pyroglutamate; Nle-NH2; rhenium complex; printed: Gln-Arg-Leu-Gly-Asn-Gln-Trp-Ala-Val-Gly-His-Leu-Cys-) [6-2],% Inhibition,bombesin receptor,91%
Pyr-Gln-Arg-Leu-Gly-Asn-Gln-Trp-Ala-Val-Gly-His-Leu-Nle-Cys-NH2 ([pGlu]QRLGNQWAVGHL[Nle]C-NH2; numbers in words are those of the source; also: rhenium complex (oxorhenium(V) N3S1 tetradentate chelate via Re=O core)) [6-1],% Inhibition,bombesin receptor,82%
Pyr-Gln-Arg-Leu-Gly-Asn-Gln-Trp-Cys-Ala-Val-Gly-His-Leu-Nle-NH2 ([pGlu]QRLGNQWCAVGHL[Nle]-NH2; numbers in words are those of the source; also: rhenium complex (oxorhenium(V) N3S1 tetradentate chelate via Re=O core)) [6-7],% Inhibition,bombesin receptor,62%
Pyr-Gln-Arg-Leu-Gly-Asn-Gln-Trp-Cys-Val-Gly-His-Leu-Nle-NH2 (QRLGNQWCVGHL; N-terminal pyroglutamate; C-terminal Nle-amide; printed: Gln-Arg-Leu-Gly-Asn-Gln-Trp-Cys-Val-Gly-His-Leu-) [7-6],% Inhibition,bombesin receptor,91%
Pyr-Gln-Arg-Leu-Gly-Cys-Asn-Gln-Trp-Ala-Val-Gly-His-Leu-Nle-NH2 ([pGlu]QRLGCNQWAVGHL[Nle]-NH2; numbers in words are those of the source; also: rhenium complex (oxorhenium(V) N3S1 tetradentate chelate via Re=O core)) [6-10],% Inhibition,bombesin receptor,93%
Pyr-Gln-Arg-Leu-Gly-Cys-Gln-Trp-Ala-Val-Gly-His-Leu-Nle-NH2 (QRLGCQWAVGHL; N-term pyroglutamate; Nle-NH2; rhenium complex; printed: Gln-Arg-Leu-Gly-Cys-Gln-Trp-Ala-Val-Gly-His-Leu-) [7-9],% Inhibition,bombesin receptor,93%
Trp-Ala-Val-Cys-His-Leu-Leu-NH2 (WAVCHLL-NH2; not fully specified (bridges); printed as Trp-Ala-Val-Cys-His-Leu-Leu-NH2; also: oxorhenium(V) N3S1 chelate (Re=O) with Cys) [11-5],% Inhibition,bombesin receptor,18%
Trp-Ala-Val-Cys-His-Leu-NH2 (WAVCHL-NH2; not fully specified (bridges); printed as Trp-Ala-Val-Cys-His-Leu-NH2; also: oxorhenium(V) N3S1 chelate (Re=O) with Cys) [11-8],% Inhibition,bombesin receptor,13%
Trp-Ala-Val-Cys-His-NH2 (WAVCH-NH2; not fully specified (bridges); printed as Trp-Ala-Val-Cys-His-NH2; also: oxorhenium(V) N3S1 chelate (Re=O) with Cys) [11-11],% Inhibition,bombesin receptor,−1%
Trp-Ala-Val-Cys-NH2 (WAVC-NH2; not fully specified (bridges); printed as Trp-Ala-Val-Cys-NH2; also: oxorhenium(V) N3S1 chelate (Re=O) with Cys) [11-14],% Inhibition,bombesin receptor,8%
[dF]QWA[dV]CHLL-NH2 [10-3],% Inhibition,bombesin receptor,7%
